Source: article PMC7265331

Target: Cab45 (UniProt Q9BRK5)
Test: GFP-Cab45 oligomerization assay, confocal microscopy
Conditions: reference: GFP-Cab45-WT; sites S99,T131,S142,T193,S349

other: share of oligomers with maximum intensity <500 a.u.: same; reference 55
Substance: Cab45 (from UniProt Q9BRK5) GFP-Cab45-5pXE
